From patent US10272117B2, “Methods of using an activator of cereblon for neural cell expansion and the treatment of central nervous system disorders” (Celgene Corporation, priority 2014, dated 2019)

Tested on: zebrafish embryos
Assay: Brain size, morphology and volume of zebrafish embryos (microscopy, MRI)
Type: in vivo
Details: for brain development: 22 hpf
Experimental: An aqueous solution of a 25-mer antisense morpholino oligonucleotide (AMO, Gene Tools, LLC) corresponding to the vicinity of the translation initiation codon in the cDNA sequence of the gene to be knocked down ([…] injection conditions were the same as those used for RNA) was injected into the embryos at the 1-cell stage. The sequence of AMO used for the CRBN gene knockdown is 5′-[…]-3′ (SEQ ID NO: 3). The sequence of AMO used for the Lhx2 gene knockdown is 5′-[…]-3′ (SEQ ID NO:4). The sequence of AMO used for the BRD7 gene knockdown is 5′-[…]-3′ (SEQ ID NO:1). The sequence of AMO used for the Ikaros gene knockdown is 5′-[…]-3′ (SEQ ID NO:2). […]
In order to examine the effect of antagonists of BRD7 on brain growth, BRD7 was knocked down or over-expressed in zebrafish embryos. Knockdown of BRD7 was performed by microinjection of antisense morpholino oligonucleotides (AMO). Overexpression of BRD7 was performed by microinjection of synthesized capped mRNA. AMO or capped mRNA was introduced into one-cell stage embryos by using a nitrogen gas-pressure microinjector IM 300 (Narishige). Conditions for microinjection were as follows: gas pressure was about 15 picosiemens; release period was about 30 to about 50 milliseconds per single injection; concentrations of AMOs and capped mRNA were 400 ng/μl and 250 ng/μl in nuclease-free water, respectively. Capped mRNAs were synthesized in vitro using the mMESSAGE mMachine® in vitro transcription kit (Ambion) from cDNAs cloned into pCS2+ plasmids.
The brains of the embryos were examined for morphology and volume by magnetic resonance imaging (MRI). FIGS. 9A, 9B, and 9C show microscopic pictures of the untreated, the BRD7-knockdown, and the BRD7-overexpressing zebrafish embryos, respectively. FIGS. 9D, 9E, and 9F show fluorescent microscopic pictures of the brain regions of the untreated, the BRD7-knockdown, and the BRD7-overexpressing zebrafish embryos, respectively. As shown in these figures, the BRD7-knockdown zebrafish embryos had bigger heads than the untreated embryos. […] The volume of the whole brain of the BRD7-knockdown fish was much bigger than that of the untreated fish, while for the BRD7-overexpressing fish, the brain volume was smaller.
In order to examine the effect of antagonists of Ikaros on brain growth, Ikaros was knocked down or over-expressed in zebrafish embryos. Knockdown of Ikaros was performed by microinjection of antisense morpholino oligonucleotides (AMO). Overexpression of Ikaros was performed by injection of synthesized capped mRNA. AMO or capped mRNA was introduced into one-cell stage embryos by using a nitrogen gas-pressure microinjector IM 300 (Narishige). Conditions for microinjection were as follows: gas pressure was about 15 picosiemens; release period was about 30 to about 50 milliseconds per single injection; concentrations of AMOs and capped mRNA were 400 ng/μl and 250 ng/μl in nuclease-free water, respectively. Capped mRNAs were synthesized in vitro using the mMESSAGE mMachine® in vitro transcription kit (Ambion) from cDNAs cloned into pCS2+ plasmids.
The brains of the embryos were examined for morphology and volume by magnetic resonance imaging (MRI). FIGS. 15A, 15B, and 15C show microscopic pictures of untreated, Ikaros-knockdown, and Ikaros-overexpressing zebrafish embryos at 55 hpf, respectively. As shown in these figures, the Ikaros-knockdown fish had bigger heads than the untreated embryos. […] The volume of the whole brain of the Ikaros-knockdown fish was much bigger than that of the untreated fish, while for the Ikaros-overexpressing fish, the brain volume was smaller.

## 5′-TCTGCAACCCAAGATTTCCGTGAGA-3′ (all phosphorodiamidate morpholino (PMO)) [lhx2 gene-knockdown, 25-mer antisense morpholino oligonucleotide (AMO) used for the Lhx2 gene knockdown, reference compound]
FIG. 1
  brain size compared to the normal embryo: brain shrinkage

B1: ikzf1-007: Ikaros variant lacking exons 4 and 7, overexpressed as fused Ikzf1:EGFP protein in zebrafish embryos (nucleic acid)
DNA: ATGGAGACTGAGGAGGCACAGGAAATGTCCCAGATAACAGGAAGAGACAGCCCGATGAATGCTAATGAAGGCGGAGAGGATCAAGATGAGGCCATGCCTGTTCCTGAAGACTTGTCAGCAAGCACTGGCCTCCAACACAACAATCGCACAGATAAACCACTGGCCTGTAATATAAAAGTTGAGGCTCGGAGTGACGAGGAAAACGGTCTGTCCTGTGAGATGAATGGAGAGGCAGAGGAATGTGCAGCTGAGGACTTGCGCATACTCGATGGCTCTGGGGCCAAAGTGAACGGCTCCCACGCAGGCCCCGACAGCAAGCCGGCCGCCTACCCCACAGCCGGGGGCATCCGCCTCCCCAACGGGAAGCTGAAGTGCGATATCTGTGGGATAGTTTGCATTGGGCCCAATGTGTTGATGGTTCACAAGCGAAGTCACACTGGTGAAAGGCCATTCCAGTGCAATCAATGTGGTGCTTCATTCACTCAGAAGGGTAACCTGCTCCGACACATCAAACTTCACTCTGGCGAGAAACCTTTCAAATGTCACCTGTGCAACTATGCTTGCCGCCGCAGAGACGCTCTCACTGGACATCTGCGCACTCATTCGGTTGGAAAGCCCCATAAGTGTGCATATTGCGGACGCAGTTACAAGCAGCGGAGCTCACTGGAGGAACATAAGGAGAGATGTCACAACTACTTGCAGTGCATGGGCCTTCAGAACAGCATTTATACAGGAGAGAATCGTCTGTCAGAGCTATCTTTCGAGAGTGGCTCANGTGAGCTGATGCAGCCCCATGTGATTGATCAGGCCATCAACAGTGCAATTAGCTATCTGGGTGCAGAGTCCTTGCGGCCTCTGGTTCAGACCTCTCCTGGGTCCGCCGACATGGTGGTCAGCCCTCTATACAACCTGCACAAGTCACAAACAGCTGAAGGCAATGGTGTTTCTGCTAAAGACAGCGCCGCAGAGCACCTTCTCCTACTCTCTAAGTCCAAATCCGCCTCTGTTGACAAAGACGGTTCCCCCAGTCCCAGCGGGCAGGATTCCACTGACACTGAGAGCAACAACGAGGAGCGTTCGGCCGGGGTAAGCGGAACAGCAGCCACAGGTGGTCTCATCTACCTGACCAACCACATGGCTCCAGGTATGAGAAATGGAGGCCTGCCAGGGGTAAAGGAAGAACAACACCGGCAGTTTGAGGCTTTGCGAGCAGCAGGAATGGATTTGAGTATAGCGTCATCAGAAGGATTTAAGGTGCTAAGTGGAGATGGAGAAGAATTGAGGGCGTACCGCTGTATCCACTGCAGAGTTTTGTTCCTGGATCATGTCATGTACACCATCCACATGGGCTGTCATGGCTTCCGAGACCCCTTTGAGTGCAACCTATGCGGGTACCGCAGTCAGGACCGTTATGAGTTCTCATCGCACATCACACGTGGAGAGCACCGCATCTGA
modifications: fused to EGFP; nucleotide sequence of ikzf1-007 Ikaros variant; 775 n = A,T,C or G
notes: Ikaros variant lacking exons 4 and 7, overexpressed as fused Ikzf1:EGFP protein in zebrafish embryos
  brain development: reduction of brain development

B2: ikzf1-006: Ikaros variant lacking exon 7, overexpressed as fused Ikzf1:EGFP protein in zebrafish embryos (nucleic acid)
DNA: ATGGAGACTGAGGAGGCACAGGAAATGTCCCAGATAACAGGAAGAGACAGCCCGATGAATGCTAATGAAGGCGGAGAGGATCAAGATGAGGCCATGCCTGTTCCTGAAGACTTGTCAGCAAGCACTGGCCTCCAACACAACAATCGCACAGATAAACCACTGGCCTGTAATATAAAAGTTGAGGCTCGGAGTGACGAGGAAAACGGTCTGTCCTGTGAGATGAATGGAGAGGCAGAGGAATGTGCAGCTGAGGACTTGCGCATACTCGATGGCTCTGGGGCCAAAGTGAACGGCTCCCACGCAGGCCCCGACAGCAAGCCGGCCGCCTACCCCACAGCCGGGGGCATCCGCCTCCCCAACGGGAAGCTGAAGTGCGATATCTGTGGGATAGTTTGCATTGGGCCCAATGTGTTGATGGTTCACAAGCGAAGTCACACTGAAGAAAGAAAGTCAGTTTTGGAACAACAAAAAGGTGAAAGGCCATTCCAGTGCAATCAATGTGGTGCTTCATTCACTCAGAAGGGTAACCTGCTCCGACACATCAAACTTCACTCTGGCGAGAAACCTTTCAAATGTCACCTGTGCAACTATGCTTGCCGCCGCAGAGACGCTCTCACTGGACATCTGCGCACTCATTCGGTTGGAAAGCCCCATAAGTGTGCATATTGCGGACGCAGTTACAAGCAGCGGAGCTCACTGGAGGAACATAAGGAGAGATGTCACAACTACTTGCAGTGCATGGGCCTTCAGAACAGCATTTATACAGGAGAGAATCGTCTGTCAGAGCTATCTTTCGAGAGTGGCTCANGTGAGCTGATGCAGCCCCATGTGATTGATCAGGCCATCAACAGTGCAATTAGCTATCTGGGTGCAGAGTCCTTGCGGCCTCTGGTTCAGACCTCTCCTGGGTCCGCCGACATGGTGGTCAGCCCTCTATACAACCTGCACAAGTCACAAACAGCTGAAGGCAATGGTGTTTCTGCTAAAGACAGCGCCGCAGAGCACCTTCTCCTACTCTCTAAGTCCAAATCCGCCTCTGTTGACAAAGACGGTTCCCCCAGTCCCAGCGGGCAGGATTCCACTGACACTGAGAGCAACAACGAGGAGCGTTCGGCCGGGGTAAGCGGAACAGCAGCCACAGGTGGTCTCATCTACCTGACCAACCACATGGCTCCAGGTATGAGAAATGGAGGCCTGCCAGGGGTAAAGGAAGAACAACACCGGCAGTTTGAGGCTTTGCGAGCAGCAGGAATGGATTTGAGTATAGCGTCATCAGAAGGATTTAAGGTGCTAAGTGGAGATGGAGAAGAATTGAGGGCGTACCGCTGTATCCACTGCAGAGTTTTGTTCCTGGATCATGTCATGTACACCATCCACATGGGCTGTCATGGCTTCCGAGACCCCTTTGAGTGCAACCTATGCGGGTACCGCAGTCAGGACCGTTATGAGTTCTCATCGCACATCACACGTGGAGAGCACCGCATCTGA
modifications: fused to EGFP; nucleotide sequence of ikzf1-006 Ikaros variant; 808 n = A,T,C or G
notes: Ikaros variant lacking exon 7, overexpressed as fused Ikzf1:EGFP protein in zebrafish embryos
  brain development: reduction of brain development
